Assay results taken from patent publication US9266930.
Like-named read-outs stand apart in the source and are kept apart here.

Legend:
[1] = target: T1, HLA-DR4w4 (DRB1*0401) (human); experiment: inhibition of 125I-probe peptide binding to purified HLA-DR, gel filtration
T1 chain 1: not shown
T1 chain 2: not shown

[2] = target: T2, HLA-DR1 (DRB1*0101) (human); experiment: as above
T2 chain 1: not shown
T2 chain 2: not shown

[3] = target: T3, HLA-DR2w2β1 (DRB1*1501) (human); experiment: as above
T3 chain 1: not shown
T3 chain 2: not shown

[4] = target: T4, HLA-DR2w2β2 (DRB5*0101) (human); experiment: as above
T4 chain 1: not shown
T4 chain 2: not shown

[5] = target: T5, HLA-DR5w11 (DRB1*1101) (human); experiment: as above
T5 chain 1: not shown
T5 chain 2: not shown

[6] = target: T6, HLA-DR3 (DRB1*0301) (human); experiment: as above
T6 chain 1: not shown
T6 chain 2: not shown

[7] = target: T7, HLA-DR4w15 (DRB1*0405) (human); experiment: as above
T7 chain 1: not shown
T7 chain 2: not shown

[8] = target: T1, HLA-DR4w4 (DRB1*0401) (human)
[9] = target: T2, HLA-DR1 (DRB1*0101) (human)
[10] = target: T3, HLA-DR2w2β1 (DRB1*1501) (human)
[11] = target: T4, HLA-DR2w2β2 (DRB5*0101) (human)
[12] = target: T5, HLA-DR5w11 (DRB1*1101) (human)
[13] = target: T6, HLA-DR3 (DRB1*0301) (human)
[14] = target: T7, HLA-DR4w15 (DRB1*0405) (human)
[15] = target: T8, HLA-DR5w12 (DRB1*1201) (human)
T8 chain 1: not shown
T8 chain 2: not shown

[16] = target: T9, HLA-DR9 (DRB1*0901) (human)
T9 chain 1: not shown
T9 chain 2: not shown

[17] = target: T10, HLA-DR6w19 (DRB1*1302) (human)
T10 chain 1: not shown
T10 chain 2: not shown

[18] = target: T11, HLA-DR7 (DRB1*0701) (human)
T11 chain 1: not shown
T11 chain 2: not shown

[19] = target: T1, HLA-DR4w4 (DRB1*0401) (human); experiment: competition with 125I-labeled probe peptide on purified HLA-DR, gel filtration
[20] = target: HLA-DR4w15 (DRB1*0405) (human); experiment: as above
[21] = target: HLA-DR5w11 (DRB1*1101) (human); experiment: as above
[22] = target: HLA-DR2w2β2 (DRB5*0101) (human); experiment: as above
[23] = target: HLA-DR1 (DRB1*0101) (human); experiment: as above
HLA-A*0203 (human) = experiment: competition with 125I probe peptide for purified HLA, gel filtration
HLA-A*6802 (human) = experiment: as above
HLA-B*5401 (human) = experiment: as above
HLA-B*0702 (human) [24] = experiment: as above
HLA-B*3501 (human) = experiment: as above
[25] = target: T2, HLA-DR1 (DRB1*0101) (human)
[26] = target: T10, HLA-DR6w19 (DRB1*1302) (human)
[27] = target: T6, HLA-DR3 (DRB1*0301) (human)
HLA-A*6801 (human) [28] = target: HLA-A*6801 (human)
HLA-A*3101 (human) [29] = target: HLA-A*3101 (human)
HLA-A*6801 (human) [30] = experiment: competition with 125I-labeled probe peptide for purified HLA, gel filtration
HLA-A*3101 (human) [31] = experiment: as above
HLA-A*1101 (human) [32] = experiment: as above
HLA-A*0301 (human) [33] = experiment: as above
HLA-A*3301 (human) [34] = experiment: as above
HLA-A*1101 (human) [35] = target: HLA-A*1101 (human)
HLA-A*0301 (human) [36] = target: HLA-A*0301 (human)
HLA-A*3101 (human) [37] = experiment: competition with 125I-labelled standard peptide for purified HLA, gel filtration
HLA-A*1101 (human) [38] = experiment: as above
HLA-A*0301 (human) [39] = experiment: as above
HLA-A*3301 (human) [40] = experiment: as above
HLA-A*6801 (human) [41] = experiment: as above
[42] = target: HLA-A*2401 (as the column head of Table X prints it), purified HLA class I molecule (human); experiment: as above
HLA-B*0702 (Human) [43] = target: HLA-B*0702 (Human)
HLA-B*0702 (Human) [44] = target: HLA-B*0702 (Human); remark: listed apart in the source
HLA-A*1101 (Human) [45] = target: HLA-A*1101 (Human)
HLA-A*0301 (human) [46] = target: HLA-A*0301 (human); remark: listed apart in the source
HLA-A*0301 (human) [47] = target: HLA-A*0301 (human); remark: listed apart in the source
HLA-A*0301 (human) [48] = target: HLA-A*0301 (human); remark: listed apart in the source
HLA-A*1101 (Human) [49] = experiment: competition with 125I-labelled probe peptide for purified HLA-A*1101

## RHPFKIGSSDPADNA (modifications not checked)
[1]
  binding affinity ratio (relative binding) (ratio to standard peptide): 0.47
[2]
  binding affinity ratio (relative binding) (ratio to standard peptide): 0.0044
[3]
  binding affinity ratio (relative binding) (ratio to standard peptide): -0.0004
[4]
  binding affinity ratio (relative binding) (ratio to standard peptide): -0.0005
[5]
  binding affinity ratio (relative binding) (ratio to standard peptide): 0.0056
[6]
  binding affinity ratio (relative binding) (ratio to standard peptide): -0.0008
[7]
  binding affinity ratio (relative binding) (ratio to standard peptide): 0.0029

## VFFLALFFIIFNKES (modifications not checked)
[8]
  binding affinity ratio (relative binding) (ratio to standard peptide): 0.0047
[9]
  binding affinity ratio (relative binding) (ratio to standard peptide): 0.0006
[10]
  binding affinity ratio (relative binding) (ratio to standard peptide): 0.018
[11]
  binding affinity ratio (relative binding) (ratio to standard peptide): -0.0021
[12]
  binding affinity ratio (relative binding) (ratio to standard peptide): -0.0005
[13]
  binding affinity ratio (relative binding) (ratio to standard peptide): -0.0043
[14]
  binding affinity ratio (relative binding) (ratio to standard peptide): 0.01

## VFNVVNSSIGLIMVL (modifications not checked) [… (Pf CSP DR-supermotif 15-mer, core …)]
[15]
  binding affinity ratio (relative to standard peptide): 0.0015
[16]
  binding affinity ratio (relative to standard peptide): 0.5
[17]
  binding affinity ratio (relative to standard peptide): 0.26
[18]
  binding affinity ratio (relative to standard peptide): 0.18

## SCGVWDEWSPCSVTC (modifications not checked)
[19]
  binding affinity ratio (IC50 standard peptide / IC50 test peptide): -0.0009
[20]
  binding affinity ratio (IC50 standard peptide / IC50 test peptide): -0.0009
[21]
  binding affinity ratio (IC50 standard peptide / IC50 test peptide): -0.0002
[22]
  binding affinity ratio (IC50 standard peptide / IC50 test peptide): -0.0005
[23]
  binding affinity ratio (IC50 standard peptide / IC50 test peptide): 0.0001

## ILSVSSFLFV (modifications not checked) [1167.18]
HLA-A*0203 (human)
  IC50: 19 nM
HLA-A*6802 (human)
  IC50: 2100 nM

## TPYAGEPAPF (modifications not checked) [1167.61]
HLA-B*5401 (human)
  IC50: 25 µM
HLA-B*0702 (human) [24]
  IC50: 31 nM

## LPYGRTNL (modifications not checked) [19.0051]
HLA-B*3501 (human)
  IC50: > 30 µM

## KCNLYADSAWENVKN (modifications not checked) [35.0172 … (Pf SSP2 211)]
[25]
  IC50: 23.4 µM
[26]
  IC50: 11.1 µM
[27]
  IC50: 857 nM

## NANANNAVK (modifications not checked) [… (P. falciparum CSP, position 335)]
HLA-A*6801 (human) [28]
  binding affinity ratio (IC50 of standard peptide / IC50 of test peptide): 0.021
HLA-A*3101 (human) [29]
  binding affinity ratio (IC50 of standard peptide / IC50 of test peptide): 0.0006

## LALFFIIFNK (modifications not checked) [… (P. falciparum EXP, position 9, 10 amino acids)]
HLA-A*6801 (human) [30]
  binding affinity ratio (relative to standard peptide): 0.0039
HLA-A*3101 (human) [31]
  binding affinity ratio (relative to standard peptide): 0.0072
HLA-A*1101 (human) [32]
  binding affinity ratio (relative to standard peptide): 0.053
HLA-A*0301 (human) [33]
  binding affinity ratio (relative to standard peptide): 0.014
HLA-A*3301 (human) [34]
  binding affinity ratio (relative to standard peptide): 0.0076

## NLPNDKSDR (modifications not checked) [… (P. falciparum SSP2, position 406, 9 amino acids)]
HLA-A*1101 (human) [35]
  binding affinity ratio (relative to standard peptide): 0.0002
HLA-A*0301 (human) [36]
  binding affinity ratio (relative to standard peptide): 0.0005

## QSQDNNGNR (modifications not checked)
HLA-A*3101 (human) [37]
  binding affinity ratio (IC50 of standard peptide / IC50 of test peptide): 0.002
HLA-A*1101 (human) [38]
  binding affinity ratio (IC50 of standard peptide / IC50 of test peptide): 0.0002
HLA-A*0301 (human) [39]
  binding affinity ratio (IC50 of standard peptide / IC50 of test peptide): 0.0005
HLA-A*3301 (human) [40]
  binding affinity ratio (IC50 of standard peptide / IC50 of test peptide): 0.0093

## YADSAWENVK (modifications not checked)
HLA-A*6801 (human) [41]
  binding affinity ratio (IC50 of standard peptide / IC50 of test peptide): 0.0077
HLA-A*3101 (human) [37]
  binding affinity ratio (IC50 of standard peptide / IC50 of test peptide): 0.0009
HLA-A*1101 (human) [38]
  binding affinity ratio (IC50 of standard peptide / IC50 of test peptide): 0.0002
HLA-A*3301 (human) [40]
  binding affinity ratio (IC50 of standard peptide / IC50 of test peptide): 0.0009

## KYLVIVFLIF (modifications not checked) [… (Pf SSP2 position 8, 10-mer)]
[42]
  binding affinity ratio (IC50 of standard peptide / IC50 of test peptide): 0.0003

## PYAGEPAPF (modifications not checked) [… (Pf SSP2 position 528, 9-mer)]
[42]
  binding affinity ratio (IC50 of standard peptide / IC50 of test peptide): 0.037

## NPEDDREENF (modifications not checked) [… (P. falciparum SSP2, position 382)]
HLA-B*0702 (Human) [43]
  binding affinity ratio (IC50 of standard peptide / IC50 of test peptide): 0.0001

## VPGAATPYA (modifications not checked) [… (P. falciparum SSP2, position 522)]
HLA-B*0702 (Human) [44]
  binding affinity ratio (IC50 of standard peptide / IC50 of test peptide): 0.0001

## VPLAMKLI (modifications not checked) [VPLAMKLI (P. falciparum SSP2, position 69)]
HLA-B*0702 (Human) [43]
  binding affinity ratio (IC50 of standard peptide / IC50 of test peptide): 0.0001

## GSGEPLIDVH (modifications not checked) [… (P. falciparum EXP, position 42)]
HLA-A*1101 (Human) [45]
  binding affinity ratio (IC50 of standard peptide / IC50 of test peptide): 0.0002
HLA-A*0301 (human) [46]
  binding affinity ratio (IC50 of standard peptide / IC50 of test peptide): 0.0005

## LALFFIIFNK (modifications not checked) [… (P. falciparum EXP, position 9)]
HLA-A*0301 (human) [47]
  binding affinity ratio (IC50 of standard peptide / IC50 of test peptide): 0.014

## IAGGLALLA (modifications not checked) [… (P. falciparum SSP2 position 504, 9-mer, A3 motif peptide)]
HLA-A*0301 (human) [48]
  binding affinity ratio (IC50 of standard peptide / IC50 of test peptide): 0.0002

## EALFQEYQCY (modifications not checked) [… (Pf CSP 17, A11 motif peptide)]
HLA-A*1101 (Human) [49]
  binding affinity ratio (IC50 of standard peptide / IC50 of test peptide): 0.0002

## EDNEKLRKPK (modifications not checked) [… (Pf CSP 100, A11 motif peptide)]
HLA-A*1101 (Human) [49]
  binding affinity ratio (IC50 of standard peptide / IC50 of test peptide): 0.0002
